The target in this assay is SARS-CoV-2 HR2 protein (heptad repeat 2 of the S2 subunit of the spike protein) (SARS-CoV-2). Kind of assay: ELISA.

Substance “SARS-CoV-2 HR1 protein (heptad repeat 1 of the S2 subunit of the spike protein) (domain or fragment)” came in with an IC50 of 47.8 nM.

These data come from article PMC10219671.
